Source: PMC8046350

Molecular target: T1, Egalitarian (EGL) (UniProt Q9W1K4)
T1 sequence: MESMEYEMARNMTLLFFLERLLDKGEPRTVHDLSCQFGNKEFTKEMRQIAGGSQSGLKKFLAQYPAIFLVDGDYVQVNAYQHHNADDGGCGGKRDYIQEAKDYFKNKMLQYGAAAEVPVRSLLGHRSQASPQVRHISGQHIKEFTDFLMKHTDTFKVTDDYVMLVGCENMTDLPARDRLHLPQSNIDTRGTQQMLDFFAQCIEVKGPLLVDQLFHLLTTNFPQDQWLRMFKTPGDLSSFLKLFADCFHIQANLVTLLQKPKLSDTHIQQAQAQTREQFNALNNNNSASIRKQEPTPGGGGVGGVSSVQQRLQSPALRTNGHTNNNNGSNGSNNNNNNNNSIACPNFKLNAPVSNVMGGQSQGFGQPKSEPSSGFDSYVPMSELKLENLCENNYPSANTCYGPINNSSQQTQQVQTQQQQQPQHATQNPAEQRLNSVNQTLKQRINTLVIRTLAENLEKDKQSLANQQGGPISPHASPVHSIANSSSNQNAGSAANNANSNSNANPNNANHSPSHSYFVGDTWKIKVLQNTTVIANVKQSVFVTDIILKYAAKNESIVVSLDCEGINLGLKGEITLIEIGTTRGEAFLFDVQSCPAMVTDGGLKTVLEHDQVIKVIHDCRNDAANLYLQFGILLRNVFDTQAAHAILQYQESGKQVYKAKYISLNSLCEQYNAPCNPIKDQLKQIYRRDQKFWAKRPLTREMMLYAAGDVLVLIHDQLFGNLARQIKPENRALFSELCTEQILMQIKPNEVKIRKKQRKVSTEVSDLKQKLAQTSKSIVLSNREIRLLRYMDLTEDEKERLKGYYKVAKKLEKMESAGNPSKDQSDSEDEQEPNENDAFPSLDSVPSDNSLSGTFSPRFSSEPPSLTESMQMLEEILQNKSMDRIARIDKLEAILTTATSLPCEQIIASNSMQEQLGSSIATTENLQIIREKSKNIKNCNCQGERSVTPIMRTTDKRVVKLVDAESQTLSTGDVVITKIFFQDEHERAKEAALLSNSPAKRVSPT
Assay: pull-down
Settings: reference (all sets normalized to TLS); EGL capture: DXB buffer (30 mM Hepes pH 7.3, 50 mM KCl, 2.5 mM MgCl2, 250 mM sucrose, 1 mM DTT), protease and RNase inhibitors, 90 min (binding temperature not …)

## fs(1)K10 TLS
  binding signal (fraction of TLS binding): 1
